This passage reports reverse-splicing fitness results from the RNAGym collection of RNA variant scans (doi:10.1093/molbev/msab373).

B1: Azoarcus group I ribozyme (parent)
chain: GUGCCUUGCGCCGGGAAACCACGCAAGGGAUGGUGUCAAAUUCGGCGAAACCUAAGCGCCCGCCCGGGCGUAUGGCAACGCCGAGCCAAGCUUCGGCGCCUGCGCCGAUGAAGGUGUAGAGACUAGACGGCACCCACCUAAGGCAAACGCUAUGGUGAAGGCAUAGUCCAGGGAGUGGCGAAAGUCACACAAACCGG

The variants in this data set derive from B1. Briefly: reverse-splicing fitness (ratio to wild type); higher = more active; in vitro selection; Mg2+ level not given. In short, it runs like this: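 An in vitro group I ribozyme library with randomized positions was T7-transcribed and gel-purified. In triplicate, 10 pmol RNA in EPPS pH 7.5 was reacted with 50 pmoles of a 30-nt RNA substrate for 1 h at 37 °C across several added MgCl2 levels (1–48 mM), then stopped with EDTA. Products were reverse transcribed from a substrate-complementary primer, PCR-amplified and sequenced (HiSeq 4000). Fitness is a variant's read proportion after selection over that before, normalised to wild type.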
For the variant C82A A111U A120C A145C C150G, the reverse-splicing fitness worked out at 0.00984.

As to C82A A111U A120C A145C C150A, the reverse-splicing fitness was found to be 0.012. Take C82A A111U A120C A145U C150G C169G U176C: the reverse-splicing fitness was 0.00626. With C82A A111U A120C A145U C150G C169G U176G, the reverse-splicing fitness worked out at 0.00698.

Regarding C82A A111U A120C A145U C150G C169G U176A, the reverse-splicing fitness was found to be 0.00986. With C82A A111G A145U C150G C169G U176A the figure was 0.00771; with C82A A111G A145U C150G C169G U176C, 0.00567; with C82A A111G A145U C150G C169G U176G, 0.00584.

Turning to C82A A111U A120C C150A C169G U176C, the reverse-splicing fitness stood at 0.0312. As to C82A A111U A120C C150A C169G U176A, the reverse-splicing fitness was found to be 0.0199.

Consider C82A A111U A120C C150A C169G U176G, for which the reverse-splicing fitness amounted to 0.00775. With C82A A111G A145U C169U U176G the figure was 0.0055; with C82A A111G A145U C169U U176A, 0.0124; with C82A A111G A145U C169U U176C, 0.0133. Next, C82A A111U A120C A145U C150A U176C: 0.0223; C82A A111U A120C A145U C150A U176A: 0.0108; C82A A111U A120C A145U C150A U176G: 0.00762. With C82A A111U A120C A145U C169U U176C the figure was 0.0156. On to C82A A111U A120C A145U C169U U176A, for which the reverse-splicing fitness worked out at 0.0151. Next, C82A A111U A120C A145U C169U U176G: 0.00555; C82A A111G C169U U176C: 0.0142.

As to C82A A111G C169U U176A, the reverse-splicing fitness worked out at 0.0153.

Turning to C82A A111G C169U U176G, the reverse-splicing fitness stood at 0.00547. Next, C82A A111U A120C C150A C169U U176A: 0.0186. With C82A A111U A120C C150A C169U U176G the figure was 0.00905; with C82A A111U A120C C150A C169U U176C, 0.0167. With C82A A111U A120C the figure was 0.0268; with C82A A111U A120C A145C C150A C169G U176C, 0.0348; with C82A A111U A120C A145C C150A C169G U176G, 0.0101. For the variant C82A A111U A120C A145C C150A C169G U176A, the reverse-splicing fitness stood at 0.0385. Next, C82A A111U A120C A145C C150G C169U: 0.00963; C82A A111U A120C A145C C150G C169A: 0.00897; C82A A111U A120C A145C C150G C169G: 0.00743. Next, C82A A111U A120C C150A: 0.0118; C82A A111U A120C C150G: 0.00909. Next, C82A A111U A120C A145U C150G C169U: 0.01; C82A A111U A120C A145U C150G C169A: 0.00962. Turning to C82A A111U A120C A145U C150G C169G, the reverse-splicing fitness was 0.00869. C82A A111G A145U C150U C169A U176C: the reverse-splicing fitness worked out at 0.0114.

As to C82A A111G A145U C150U C169A U176A, the reverse-splicing fitness came to 0.0133. With C82A A111G A145U C150U C169A U176G the figure was 0.00665. On to C82A A111G A145U C150U, for which the reverse-splicing fitness amounted to 0.254. For C82A A111U A120C A145C C150A C169A U176G, the reverse-splicing fitness was determined as 0.00772.

Consider C82A A111U A120C A145C C150A C169A U176C, for which the reverse-splicing fitness was found to be 0.0164.

Turning to C82A A111U A120C A145C C150A C169A U176A, the reverse-splicing fitness was 0.0206. With C82A A111G C150G C169G U176G the figure was 0.00592; with C82A A111G C150G C169G U176C, 0.00543. With C82A A111G C150G C169G U176A the figure was 0.00836. As for C82A A111U A120C A145G C169U U176G, the reverse-splicing fitness came to 0.00584.

Consider C82A A111U A120C A145G C169U U176C, for which the reverse-splicing fitness is 0.0156.

Regarding C82A A111U A120C A145G C169U U176A, the reverse-splicing fitness amounted to 0.0178.

As to C82A A111G C150U C169G U176G, the reverse-splicing fitness was 0.00633. With C82A A111G C150U C169G U176A, the reverse-splicing fitness is 0.0188. With C82A A111G C150U C169G U176C the figure was 0.0194; with C82A A111U A120C A145U C150U C169A U176G, 0.00837. C82A A111U A120C A145U C150U C169A U176C: the reverse-splicing fitness is 0.0168. Next, C82A A111U A120C A145U C150U C169A U176A: 0.0216; C82A A111U A120C A145U U176A: 0.0168. For the variant C82A A111U A120C A145U U176G, the reverse-splicing fitness is 0.00733. With C82A A111U A120C A145U U176C the figure was 0.0276; with C82A A111G C150G U176A, 0.00793. With C82A A111G C150G U176G the figure was 0.004; with C82A A111G C150G U176C, 0.0152; with C82A A111U A120C A145U C150U C169G U176A, 0.016. Next, C82A A111U A120C A145U C150U C169G U176C: 0.0244; C82A A111U A120C A145U C150U C169G U176G: 0.00736. Turning to C82A A111U A120C A145G C150A C169G U176C, the reverse-splicing fitness turned out to be 0.0343.

As for C82A A111U A120C A145G C150A C169G U176G, the reverse-splicing fitness came to 0.00858. Next, C82A A111U A120C A145G C150A C169G U176A: 0.0204.

Take C82A A111U A120C A145G C150U C169A U176A: the reverse-splicing fitness came to 0.0182. For C82A A111U A120C A145G C150U C169A U176C, the reverse-splicing fitness amounted to 0.018.

In the case of C82A A111U A120C A145G C150U C169A U176G, the reverse-splicing fitness stood at 0.00943. Consider C82A A111U A120C A145U C150U C169U U176G, for which the reverse-splicing fitness was found to be 0.00816. Next, C82A A111U A120C A145U C150U C169U U176C: 0.0137; C82A A111U A120C A145U C150U C169U U176A: 0.0157. With C82A A111G C150A U176C the figure was 0.0387; with C82A A111G C150A U176A, 0.0284; with C82A A111G C150A U176G, 0.0144. With C82A A111G C150G C169U U176G the figure was 0.00537; with C82A A111G C150G C169U U176A, 0.00656.

As to C82A A111G C150G C169U U176C, the reverse-splicing fitness came to 0.0125. As for C82A A111U A120C A145G C150U C169A, the reverse-splicing fitness was 0.0113.

As to C82A A111U A120C A145G C150U C169U, the reverse-splicing fitness is 0.0127.

For C82A A111U A120C A145G C150U C169G, the reverse-splicing fitness was determined as 0.00957.
